Measured values published in patent EP4480965A1, “TRANSFERRIN RECEPTOR-BINDING MOLECULES, CONJUGATES THEREOF AND THEIR USES TO PREVENT OR TREAT CNS DISEASES” (Vect-Horus, priority 2023, dated 2024).

B1: C5-hFc-siSOD1m-5'VP (protein, part only; not given: Fc knob and hole arms, siRNA, part only)
chain, part: EVQLVESGGGVVQPGGSLKLSCVASGTDFSINFIRWYRQAPGKQREFVAGFTATGNTNYADSMKGRFTISRDNTKNAVYLQIDSLKPEDTAVYYCYMLDKWGQGTQVTVSSAAAEQKLISEEDLNGAAHHHHHHGS
B2: B8h1-NT(8-13) (protein, part only; not given: nothing essential, part only)
chain, part: EVQLVESGGGVVQPGGSLRLSCAASGEIFSINFMRWYRQAPGKGLEWVAGFTRDGSTNYPDSVKGRFTISRDNAKNTVYLQMNSLRPEDTAVYYCYMLDTWGQGTQVTVSSHHHHHHGGGGSGGGGS

How the values were obtained:
[1] = target: murine TfR expressed by murine neuroblastoma Neuro-2a cells (mouse) (UniProt Q62351); test: cell-based or functional assay
[2] = target: mouse transferrin receptor fused to EGFP, expressed on CHO cells (mouse) (UniProt Q62351); test: cell-based assay on mTfR, apparent Kd
Chain of mouse transferrin receptor fused to EGFP, expressed on CHO cells (mouse) (Q62351 whole entry, the tested form may be a part): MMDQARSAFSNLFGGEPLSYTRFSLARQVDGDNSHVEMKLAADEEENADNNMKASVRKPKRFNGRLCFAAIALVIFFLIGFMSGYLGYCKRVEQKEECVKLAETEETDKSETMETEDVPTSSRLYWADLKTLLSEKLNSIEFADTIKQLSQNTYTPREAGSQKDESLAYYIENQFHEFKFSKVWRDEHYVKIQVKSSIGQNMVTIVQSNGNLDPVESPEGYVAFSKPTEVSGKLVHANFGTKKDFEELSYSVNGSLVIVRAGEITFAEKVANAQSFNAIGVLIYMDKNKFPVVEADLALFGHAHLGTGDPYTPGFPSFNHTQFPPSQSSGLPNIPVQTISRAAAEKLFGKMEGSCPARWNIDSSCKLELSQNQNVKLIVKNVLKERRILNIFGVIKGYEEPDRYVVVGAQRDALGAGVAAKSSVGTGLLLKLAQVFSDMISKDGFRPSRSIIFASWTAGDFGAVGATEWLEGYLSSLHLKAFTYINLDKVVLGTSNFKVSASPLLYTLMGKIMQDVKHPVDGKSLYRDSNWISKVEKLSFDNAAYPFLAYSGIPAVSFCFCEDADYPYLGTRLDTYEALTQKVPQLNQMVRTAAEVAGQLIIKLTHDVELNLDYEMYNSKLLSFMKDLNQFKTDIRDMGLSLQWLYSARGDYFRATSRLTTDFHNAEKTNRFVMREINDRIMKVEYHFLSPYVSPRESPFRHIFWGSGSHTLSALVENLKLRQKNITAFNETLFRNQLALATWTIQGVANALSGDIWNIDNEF

Chain of murine TfR expressed by murine neuroblastoma Neuro-2a cells (mouse) (Q62351 whole entry, the tested form may be a part): as above

Binder | mean IC50 of mSOD1 mRNA downregulation, free uptake on Neuro-2a cells [1] [nM] | Kd [2] [nM]
B1 | 8.7 | 
B2 |  | 2.8
